Residue numbers refer to the chain shown, from its start.

The chains are these.
B1: WT 1-3 (antibody, V domains shown)
VH: QVQLQQSGTELAKPGASVKFSCKASDYTFTTYWMYWIKQRPGQGLEWIGYINPSTGHTEYNQKFKDKATLTADKSSSTAYMQLNSLTSEDSAVYYCARKYFGPFAMDYWGQGTSVTVSS
VL: EIFLTQSPAIMSASPGEKVTMTCSASTSVSYAHWYQQKSGTSPKRWIYDSSKLASGIPVRFSGSGSGTSYSLTISSMEAEDAATYYCQNWSSNPYTFGGGTKLEIKR
B2: Mutation 1-48 (antibody, V domains shown)
VH: B1 VH with D26G, T30S, T31S, I51L, E59D, K63R, K99R, F101W, A105G
VL: B1 VL with T27S, S28T, A32V, S50T, L53I, N89Q, S92T
B3: Mutation 1-37 (antibody, V domains shown)
VH: B1 VH with D26G, T30S, T31S, I51L, E59D, K63R, A105G
VL: B1 VL with A32V, S50T, N89Q, S92T, N93Q
B4: Mutation 1-52 (antibody, V domains shown)
VH: B1 VH with D26G, E59D, K63R, K99R, F101W, A105G
VL: B1 VL with A32V, S50T, L53I, N89Q
B5: Mutation 1-27 (antibody, V domains shown)
VH: B1 VH with D26G, T31S, I51L, T55S, E59D, A105G
VL: B1 VL with A32V, S50T, N89Q
B6: Mutation 1-43 (antibody, V domains shown)
VH: B1 VH with D26G, T31S, E59D, A105G
VL: B1 VL with A32V, S50T, N89Q, S92T, N93Q
B7: Mutation 1-42 (antibody, V domains shown)
VH: B1 VH with D26G, T31S, T55S, E59D, K99R, F101W, A105G
VL: B1 VL with T27S, S28T, A32V, I47L, S50T, N89Q
B8: Mutation 1-23 (antibody, V domains shown)
VH: B1 VH with D26G, T31S, E59D, K63R, F101W, A105G
VL: B1 VL with T27S, A32V, S50T, N89Q
B9: Mutation 1-51 (antibody, V domains shown)
VH: B1 VH with D26G, E59D, K63R, K99R, F101Y, A105G
VL: B1 VL with A32V, S50T, L53I, N89Q, N93Q
B10: Mutation 1-41 (antibody, V domains shown)
VH: B1 VH with D26G, T30S, T31S, E59D, K63R, K99R, F101Y, A105G
VL: B1 VL with A32V, S50T, L53I, N89Q, N93Q
B11: Mutation 1-33 (antibody, V domains shown)
VH: B1 VH with D26G, T30S, T31S, E59D, A105G
VL: B1 VL with A32V, S50T, L53I, N89Q
B12: Mutation 1-20 (antibody, V domains shown)
VH: B1 VH with D26G, T30S, I51L, T55S, E59D, K99R, F101W, A105G
VL: B1 VL with T27S, S28T, A32V, I47L, S50T, L53I, N89Q, N93Q
B13: Mutation 1-46 (antibody, V domains shown)
VH: B1 VH with D26G, T31S, I51L, T55S, E59D, K99R, A105G
VL: B1 VL with A32V, S50T, N89Q
B14: Mutation 1-13 (antibody, V domains shown)
VH: B1 VH with D26G, T30S, T31S, I51L, T55S, E59D, K63R, K99R, F101Y, A105G
VL: B1 VL with T27S, A32V, S50T, L53I, N89Q, S92T, N93Q
B15: Mutation 1-50 (antibody, V domains shown)
VH: B1 VH with D26G, T31S, I51L, E59D, K99R, F101W, A105G
VL: B1 VL with S28T, A32V, S50T, N89Q
B16: Mutation 1-14 (antibody, V domains shown)
VH: B1 VH with D26G, T31S, I51L, E59D, K99R, F101W, A105G
VL: B1 VL with T27S, S28T, A32V, I47L, S50T, N89Q, S92T, N93Q
B17: Mutation 1-39 (antibody, V domains shown)
VH: B1 VH with D26G, I51L, E59D, F101W, A105G
VL: B1 VL with A32V, S50T, N89Q, S92T, N93Q
B18: Mutation 1-38 (antibody, V domains shown)
VH: B1 VH with D26G, T31S, I51L, T55S, E59D, F101Y, A105G
VL: B1 VL with T27S, S28T, A32V, I47L, S50T, N89Q
B19: Mutation 1-19 (antibody, V domains shown)
VH: B1 VH with D26G, T31S, I51L, E59D, K99R, F101Y, A105G
VL: B1 VL with T27S, A32V, S50T, N89Q, N93Q
B20: Mutation 1-15 (antibody, V domains shown)
VH: B1 VH with D26G, I51L, T55S, E59D, K63R, A105G
VL: B1 VL with A32V, S50T, N89Q, S92T, N93Q
notes: CDR-VL3 cell prints 'TQ', read as T/Q
B21: Mutation 1-26 (antibody, V domains shown)
VH: B1 VH with D26G, I51L, E59D, K99R, F101W, A105G
VL: B1 VL with T27S, S28T, A32V, I47L, S50T, N89Q
B22: Mutation 1-31 (antibody, V domains shown)
VH: B1 VH with D26G, E59D, K99R, F101Y, A105G
VL: B1 VL with T27S, A32V, S50T, N89Q
B23: Mutation 1-29 (antibody, V domains shown)
VH: B1 VH with D26G, T30S, T31S, T55S, E59D, F101W, A105G
VL: B1 VL with T27S, A32V, S50T, L53I, N89Q
B24: Mutation 1-30 (antibody, V domains shown)
VH: B1 VH with D26G, T31S, I51L, T55S, E59D, K63R, K99R, A105G
VL: B1 VL with S28T, A32V, I47L, S50T, N89Q
B25: Mutation 1-35 (antibody, V domains shown)
VH: B1 VH with D26G, E59D, K99R, F101W, A105G
VL: B1 VL with T27S, A32V, S50T, N89Q, S92T, N93Q
B26: Mutation 1-45 (antibody, V domains shown)
VH: B1 VH with D26G, T30S, T31S, I51L, E59D, K63R, F101W, A105G
VL: B1 VL with T27S, S28T, A32V, I47L, S50T, N89Q, N93Q
B27: Mutation 1-17 (antibody, V domains shown)
VH: B1 VH with D26G, T30S, T31S, E59D, K63R, F101W, A105G
VL: B1 VL with T27S, A32V, S50T, L53I, N89Q, N93Q
B28: Mutation 1-49 (antibody, V domains shown)
VH: B1 VH with D26G, I51L, T55S, E59D, A105G
VL: B1 VL with A32V, I47L, S50T, N89Q, N93Q
B29: Mutation 1-21 (antibody, V domains shown)
VH: B1 VH with D26G, T30S, T31S, I51L, E59D, K63R, A105G
VL: B1 VL with A32V, S50T, L53I, N89Q, N93Q
B30: WT 1-5 (antibody, V domains shown)
VH: B1 VH with T30S, T31S, I51L, F101W
VL: B1 VL with T27S, L53I, S92T
B31: WT 1-8 (antibody, V domains shown)
VH: B1 VH with T30S, K99R, F101W
VL: B1 VL with S28T, I47L, L53I, S92T, N93Q
B32: WT 1-7 (antibody, V domains shown)
VH: B1 VH with I51L, K99R, F101Y
VL: B1 VL with S92T
B33: WT 1-6 (antibody, V domains shown)
VH: B1 VH with T31S, I51L, T55S, K63R, K99R
VL: B1 VL with T27S, S28T, I47L, S92T

T1 sequence (P19429 whole entry): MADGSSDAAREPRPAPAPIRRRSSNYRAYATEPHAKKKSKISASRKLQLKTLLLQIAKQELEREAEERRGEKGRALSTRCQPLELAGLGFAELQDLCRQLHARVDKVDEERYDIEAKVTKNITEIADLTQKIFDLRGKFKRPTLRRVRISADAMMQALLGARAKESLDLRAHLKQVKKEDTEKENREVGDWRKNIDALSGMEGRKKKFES

This test concerns the target T1, cTnI quality control product recombinant protein (human, UniProt P19429 1-210, limits assumed).
T1 construct: the assay paragraphs only say cTnI; also called cardiac troponin I; cTnI antigen
Description: AMC biosensor, antibody on sensor. The protocol: Operating process: it is equilibrated in Buffer 1 (PBST) for 60 s, the antibody is immobilized in an antibody solution for 300 s, incubated in Buffer 2 (PBST) for 180 s, bound in antigen solution for 420 s, dissociated in the Buffer 2 for 1200 s, 10 mM of GLY solution with pH 1.69 and Buffer 3 are used for sensor regeneration, and data is output.
For the molecule B1, the Kd (commonly the free concentration of one partner at which half of the binding sites on the other are occupied at equilibrium, for simple one-to-one binding) was 10.8 nM; the koff (as a rule, the rate constant with which the complex falls apart) was determined as 0.000372 s⁻¹; the association rate constant (kon) (usually a measure of how fast the partners come together) turned out to be 34400 M⁻¹ s⁻¹.

Consider B2, for which the Kd came to 6.6 nM, the koff was 8.58e-05 s⁻¹ and the kon was 13000 M⁻¹ s⁻¹.

B3: the Kd came out at 8.01 nM, the koff came to 0.000268 s⁻¹ and the kon came out at 33400 M⁻¹ s⁻¹.

Turning to B4, the equilibrium dissociation constant (Kd) came to 1.01 nM, the koff is 1.38e-05 s⁻¹ and the kon stood at 13600 M⁻¹ s⁻¹.

Turning to B5, the Kd was 9.42 nM, the koff came to 0.000372 s⁻¹ and the kon was 39500 M⁻¹ s⁻¹.

Take B6: the Kd came to 12.9 nM, the off-rate (koff) worked out at 0.000368 s⁻¹ and the association rate constant (kon) was found to be 28600 M⁻¹ s⁻¹.

Turning to B7, the Kd was determined as 7.37 nM, the koff was 0.000362 s⁻¹ and the kon was 49100 M⁻¹ s⁻¹.

On to B8, for which the Kd came to 1.76 nM, the koff was 2.04e-05 s⁻¹ and the kon amounted to 11600 M⁻¹ s⁻¹.

Regarding B9, the Kd was 0.81 nM, the koff was 2.15e-05 s⁻¹ and the association rate constant (kon) is 26500 M⁻¹ s⁻¹.

For the molecule B10, the Kd was 3.27 nM, the koff came out at 6.06e-05 s⁻¹ and the on-rate constant (kon) was found to be 18500 M⁻¹ s⁻¹.

Regarding B11, the Kd is 2.75 nM, the koff is 9.53e-05 s⁻¹ and the kon came to 34700 M⁻¹ s⁻¹.

Take B12: the Kd was 1.38 nM, the koff amounted to 2.3e-05 s⁻¹ and the kon stood at 16600 M⁻¹ s⁻¹.

B13: the Kd was determined as 5.57 nM, the off-rate constant (koff) turned out to be 0.000118 s⁻¹ and the kon was determined as 21200 M⁻¹ s⁻¹.

For the molecule B14, the Kd stood at 4.42 nM, the koff came to 7.82e-05 s⁻¹ and the kon was 17700 M⁻¹ s⁻¹.

B15: the equilibrium dissociation constant (Kd) came out at 1.09 nM, the dissociation rate constant (koff) was 1.11e-05 s⁻¹ and the kon was 10200 M⁻¹ s⁻¹.

In the case of B16, the Kd was found to be 7.84 nM, the koff came to 0.000217 s⁻¹ and the kon was found to be 27700 M⁻¹ s⁻¹.

On to B17, for which the Kd worked out at 1.03 nM, the koff was 2.79e-05 s⁻¹ and the kon came to 27000 M⁻¹ s⁻¹.

As to B18, the Kd turned out to be 7.3 nM, the koff stood at 0.000223 s⁻¹ and the on-rate (kon) is 30500 M⁻¹ s⁻¹.

Consider B19, for which the Kd came out at 6.54 nM, the koff was determined as 7.12e-05 s⁻¹ and the kon turned out to be 10900 M⁻¹ s⁻¹.

As for B20, the Kd was found to be 1.16 nM, the dissociation rate constant (koff) was 2.1e-05 s⁻¹ and the kon came to 18100 M⁻¹ s⁻¹.

On to B21, for which the dissociation constant Kd stood at 2.08 nM, the koff worked out at 3.31e-05 s⁻¹ and the kon is 15900 M⁻¹ s⁻¹.

As for B22, the Kd was determined as 12.7 nM, the koff was 0.000365 s⁻¹ and the kon is 24000 M⁻¹ s⁻¹.

With B23, the Kd turned out to be 0.96 nM, the koff was found to be 1.52e-05 s⁻¹ and the kon was found to be 15800 M⁻¹ s⁻¹.

Take B24: the Kd was 7.2 nM, the koff was 0.000258 s⁻¹ and the kon amounted to 35800 M⁻¹ s⁻¹.

B25: the Kd stood at 2.6 nM, the koff is 4.92e-05 s⁻¹ and the kon was 18900 M⁻¹ s⁻¹.

Consider B26, for which the Kd was found to be 3.7 nM, the koff is 9.65e-05 s⁻¹ and the kon worked out at 26100 M⁻¹ s⁻¹.

As to B27, the Kd came to 2.98 nM, the dissociation rate constant (koff) came to 9.97e-05 s⁻¹ and the on-rate (kon) was determined as 33500 M⁻¹ s⁻¹.

For B28, the Kd amounted to 5.94 nM, the koff was determined as 0.000195 s⁻¹ and the kon was 32800 M⁻¹ s⁻¹.

Turning to B29, the Kd is 9.92 nM, the koff is 0.000262 s⁻¹ and the kon came to 26100 M⁻¹ s⁻¹.

Regarding B30, the dissociation constant (Kd) came to 48.6 nM, the koff was found to be 0.0017 s⁻¹ and the kon was 35000 M⁻¹ s⁻¹.

B31: the Kd turned out to be 75.1 nM, the koff stood at 0.00221 s⁻¹ and the association rate constant (kon) came out at 29400 M⁻¹ s⁻¹.

Turning to B32, the Kd turned out to be 28.6 nM, the koff stood at 0.000795 s⁻¹ and the kon was found to be 27800 M⁻¹ s⁻¹.

In the case of B33, the equilibrium dissociation constant (Kd) worked out at 51.5 nM, the koff was determined as 0.00131 s⁻¹ and the kon is 25500 M⁻¹ s⁻¹.

These data come from patent publication US20220033483A1 (GUAGNDONG FEIPENG BIOLOGICAL, published 2022).
